Reference: US20120231006A1 (Amgen, published 2012)
Read-outs that look alike come from different tables or passages of the source.

What was measured:
[1] = biological target: T1, human Orai1 (human, UniProt Q96D31 1-301); experiment: cell-based or functional assay
[2] = biological target: T2, mOrai1-hOrai1 ECL2 chimeric protein (human/mouse chimera, UniProt Q8BWG9 1-304 (mouse entry)); experiment: FACS, 293EBNA, RFI-POC grade; set-up: concentration or dose not given beside the values
T2 construct: mouse Orai1 with human ECL2; also called Ch
From the text: (§1) FIG. 16A-D illustrates the results of FACS analysis showing binding to the indicated mOrai1-hOrai1 ECL2 chimeric mutants expressed on the surface of HEK-293-EBNA cells. Transfected cells were stained first with recombinant monoclonal antibodies then counter-stained with a secondary phycoerythrin-labeled goat (“Gt”) anti-human (“Hu”) IgG F(ab′)₂ antibody fragment and visualized using FACS. In FIG. 16B and FIG. 16D, The values of Relative Fluorescence Intensity as Percent of Control (RFI-POC) are calculated from the relative fluorescence intensity geometric mean (Geo Mean). The geometric mean is an average calculated by multiplying a series of numbers and taking the nth root where n is the number of numbers in the series. It is a statistical average of a set of transformed numbers often used to represent a central tendency in a highly variable data set that minimizes the effects of extreme values.
(§2) Table 11A and Table 11B feature a schematic representation of the POC data from FIG. 16B and FIG. 16D, respectively, where the binding results are recorded as (+++) denoting binding POC from 40% to 100%, (++) for POC of 5% to less than 40%, (+) for POC from 1% to less than 5% and (−) as lack of binding with POC less than 1%.

[3] = biological target: T3, mOrai1-hOrai1 ECL2 (VIV) protein (human/mouse chimera, UniProt Q8BWG9 1-304 (mouse entry)); experiment: FACS, 293EBNA, RFI-POC grade; set-up: concentration or dose not given beside the values
T3 construct: also called Ch
From the text: as §1, §2

[4] = biological target: T4, mOrai1-hOrai1 ECL2 (HSD) protein (human/mouse chimera, UniProt Q8BWG9 1-304 (mouse entry)); experiment: FACS, 293EBNA, RFI-POC grade; set-up: concentration or dose not given beside the values
T4 construct: also called Ch
From the text: as §1, §2

[5] = biological target: T2, mOrai1-hOrai1 ECL2 chimeric protein; experiment: FACS, 293EBNA, RFI-POC grade; set-up: concentration or dose not given beside the values; remark: listed apart in the source
[6] = biological target: T5, hOrai1-mOrai1 ECL2 (SKPPA) protein (human/mouse chimera, UniProt Q96D31 1-301); experiment: FACS, 293EBNA, RFI-POC grade; set-up: concentration or dose not given beside the values
T5 construct: also called Ch

[7] = biological target: T6, hOrai1-mOrai1 ECL2 (RPTSKPPA) protein (human/mouse chimera, UniProt Q96D31 1-301); experiment: FACS, 293EBNA, RFI-POC grade; set-up: concentration or dose not given beside the values
T6 construct: also called Ch

[8] = biological target: T7, hOrai1-mOrai1 ECL2 (…) protein (human/mouse chimera, UniProt Q96D31 1-301); experiment: FACS, 293EBNA, RFI-POC grade; set-up: concentration or dose not given beside the values
T7 construct: also called Ch
T7 sequence (Q96D31 other isoform, or with tags, fused parts or gaps): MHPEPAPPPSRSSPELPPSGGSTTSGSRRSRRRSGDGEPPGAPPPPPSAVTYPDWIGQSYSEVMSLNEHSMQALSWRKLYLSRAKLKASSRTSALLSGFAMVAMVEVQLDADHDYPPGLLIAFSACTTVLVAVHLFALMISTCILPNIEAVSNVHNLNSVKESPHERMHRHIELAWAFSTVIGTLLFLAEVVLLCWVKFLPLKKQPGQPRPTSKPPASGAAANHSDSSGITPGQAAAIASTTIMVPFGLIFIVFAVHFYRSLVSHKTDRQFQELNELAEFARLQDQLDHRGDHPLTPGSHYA

[9] = biological target: T8, hOrai1-mOrai1 ECL2 (…) protein (human/mouse chimera, UniProt Q96D31 1-301); experiment: FACS, 293EBNA, RFI-POC grade; set-up: concentration or dose not given beside the values; remark: listed apart in the source
T8 construct: also called Ch
T8 sequence (Q96D31 other isoform, or with tags, fused parts or gaps): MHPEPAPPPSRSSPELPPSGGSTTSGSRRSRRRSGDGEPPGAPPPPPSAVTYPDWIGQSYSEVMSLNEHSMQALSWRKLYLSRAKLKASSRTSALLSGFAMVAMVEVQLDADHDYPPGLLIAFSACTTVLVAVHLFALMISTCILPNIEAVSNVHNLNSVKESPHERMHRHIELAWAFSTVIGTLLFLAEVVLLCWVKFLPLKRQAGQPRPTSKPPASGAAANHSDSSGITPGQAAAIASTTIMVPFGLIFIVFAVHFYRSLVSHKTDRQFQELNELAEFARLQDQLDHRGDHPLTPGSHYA

[10] = biological target: T9, hOrai1-mOrai1 ECL2 (…) protein (human/mouse chimera, UniProt Q96D31 1-301); experiment: FACS, 293EBNA, RFI-POC grade; set-up: concentration or dose not given beside the values; remark: listed apart in the source
T9 construct: also called Ch
T9 sequence (Q96D31 other isoform, or with tags, fused parts or gaps): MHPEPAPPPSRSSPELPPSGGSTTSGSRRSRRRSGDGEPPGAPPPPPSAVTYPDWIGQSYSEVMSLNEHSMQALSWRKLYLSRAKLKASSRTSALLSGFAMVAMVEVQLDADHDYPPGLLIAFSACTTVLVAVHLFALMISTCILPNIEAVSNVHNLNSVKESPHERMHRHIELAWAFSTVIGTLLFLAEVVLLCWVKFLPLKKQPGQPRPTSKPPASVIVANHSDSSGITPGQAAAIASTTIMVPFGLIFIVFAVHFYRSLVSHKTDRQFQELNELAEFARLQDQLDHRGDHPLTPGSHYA

[11] = biological target: T1, human Orai1; experiment: cell-based or functional assay; remark: listed apart in the source
[12] = biological target: T1, human Orai1; experiment: KinExA, AM1-CHO/hOrai1/hSTIM1-YFP cells
Description: Each equilibrium sample set was read in triplicate on the KinExA machine. For low [Ab] equilibrium samples 4 mL was run of each sample in triplicate. For high [Ab] equilibrium samples 300 μL was run of each sample in triplicate. […] For each equilibrium sample the free [Ab] would be detected by first running the coated beads through the flow cell, then after quick wash with the running buffer (1×PBS pH7.4+1% BSA+0.05% Sodium Azide) the equilibrium samples were passed through the beads followed by a quick wash with the running buffer. Then the secondary detection Ab, Gt anti Hu (H+ L) Cy5, was run through the flow cell at 1 μg/mL and 1000 μL per run. The KinExA voltage output signal was then used in KinExA software to calculate the Kd values for each antibody. From the plots at two different initial total [Ab] concentrations the Kd was obtained from curve fitting using n-curve analysis in KinExA Pro software (Sapidyne Instruments Inc., Boise Id.).

[13] = biological target: T2, mOrai1-hOrai1 ECL2 chimeric protein; experiment: FACS, 293EBNA, RFI-POC grade
From the text: as §1, §2

[14] = biological target: T3, mOrai1-hOrai1 ECL2 (VIV) protein; experiment: FACS, 293EBNA, RFI-POC grade
From the text: as §1, §2

[15] = biological target: T4, mOrai1-hOrai1 ECL2 (HSD) protein; experiment: FACS, 293EBNA, RFI-POC grade
From the text: as §1, §2

[16] = biological target: T1, human Orai1; experiment: cell-based or functional assay; remark: listed apart in the source

T1 sequence (Q96D31 whole entry): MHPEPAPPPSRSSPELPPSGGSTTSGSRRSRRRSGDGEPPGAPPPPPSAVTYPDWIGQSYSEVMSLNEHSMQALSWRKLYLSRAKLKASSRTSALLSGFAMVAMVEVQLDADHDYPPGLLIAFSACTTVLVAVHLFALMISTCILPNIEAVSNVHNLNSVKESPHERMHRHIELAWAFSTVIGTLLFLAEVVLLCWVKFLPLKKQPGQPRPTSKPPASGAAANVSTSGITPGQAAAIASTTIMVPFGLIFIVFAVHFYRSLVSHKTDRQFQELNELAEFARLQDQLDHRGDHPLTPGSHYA
T2 sequence (Q8BWG9 other isoform, or with tags, fused parts or gaps mutant): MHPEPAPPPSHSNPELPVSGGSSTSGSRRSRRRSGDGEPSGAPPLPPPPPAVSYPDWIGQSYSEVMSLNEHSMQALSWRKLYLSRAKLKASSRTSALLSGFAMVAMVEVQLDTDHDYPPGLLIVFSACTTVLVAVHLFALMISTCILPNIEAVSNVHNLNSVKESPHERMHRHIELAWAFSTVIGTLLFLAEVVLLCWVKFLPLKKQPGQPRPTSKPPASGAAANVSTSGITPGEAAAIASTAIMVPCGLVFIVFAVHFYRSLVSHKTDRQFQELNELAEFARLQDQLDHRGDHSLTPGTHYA
T4 sequence (Q8BWG9 other isoform, or with tags, fused parts or gaps): as the sequence (Q8BWG9 other isoform, or with tags, fused parts or gaps mutant) above, with V226H, T228D counted along it
T3 sequence (Q8BWG9 other isoform, or with tags, fused parts or gaps): as the sequence (Q8BWG9 other isoform, or with tags, fused parts or gaps mutant) above, with G221V, A222I, A223V counted along it
T6 sequence (Q96D31 other isoform, or with tags, fused parts or gaps): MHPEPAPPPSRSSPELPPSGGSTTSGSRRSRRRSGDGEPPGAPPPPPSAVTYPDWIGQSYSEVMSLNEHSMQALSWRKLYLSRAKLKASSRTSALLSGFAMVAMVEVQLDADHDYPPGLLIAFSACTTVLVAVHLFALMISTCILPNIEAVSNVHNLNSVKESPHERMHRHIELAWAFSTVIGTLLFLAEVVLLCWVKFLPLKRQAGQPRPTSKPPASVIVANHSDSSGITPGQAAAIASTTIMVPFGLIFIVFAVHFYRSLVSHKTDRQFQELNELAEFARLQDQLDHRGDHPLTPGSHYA
T5 sequence (Q96D31 other isoform, or with tags, fused parts or gaps): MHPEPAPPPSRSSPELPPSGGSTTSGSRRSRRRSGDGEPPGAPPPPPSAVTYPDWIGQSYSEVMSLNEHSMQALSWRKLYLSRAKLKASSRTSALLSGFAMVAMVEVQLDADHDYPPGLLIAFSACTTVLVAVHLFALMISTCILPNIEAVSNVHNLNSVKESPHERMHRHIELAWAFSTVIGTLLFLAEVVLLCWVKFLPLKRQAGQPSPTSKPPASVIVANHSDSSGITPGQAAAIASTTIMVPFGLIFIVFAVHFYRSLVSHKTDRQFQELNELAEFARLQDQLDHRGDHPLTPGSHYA

Binder	IC50 IFN-g, whole blood Donor A, recombinant mAb [1] [nM]	IC50 IFN-g, whole blood Donor B, recombinant mAb [1] [nM]	IC50 IL-2, whole blood Donor A, recombinant mAb [1] [nM]	IC50 IL-2, whole blood Donor B, recombinant mAb [1] [nM]	POC (percent of control, FACS Geo Mean relative to binding to Ch. 1) [2] [%]	POC (percent of control, FACS Geo Mean relative to binding to Ch. 1) [3] [%]	POC (percent of control, FACS Geo Mean relative to binding to Ch. 1) [4] [%]	percent of control (POC) of FACS Geo Mean [5] [%]	percent of control (POC) of FACS Geo Mean [6] [%]	percent of control (POC) of FACS Geo Mean [7] [%]	percent of control (POC) of FACS Geo Mean [8] [%]	percent of control (POC) of FACS Geo Mean [9] [%]	IC50 IFN-γ, whole blood Donor A [11] [nM]	IC50 IFN-γ, whole blood Donor B [11] [nM]	IC50 IL-2, whole blood Donor A [11] [nM]	IC50 IL-2, whole blood Donor B [11] [nM]	Kd [12] [nM]	POC (percent of control, FACS Geo Mean relative to Ch. 1) [13] [%]	POC (percent of control, FACS Geo Mean relative to Ch. 1) [14] [%]	POC (percent of control, FACS Geo Mean relative to Ch. 1) [15] [%]	other results
mAb 2D2.1 (antibody, human IgG2, lambda, V domains shown, fully human IgG2 lambda, Campaign 1; also called mAb 2D.1) VH: QVQLQQWGAGLLKPSETLSLTCAVYGGSFSGYYWSWIRQPPGKGLEWIGEIDHSGRINYNPALKSRLTISVDTSKNQFSLKLSSVTAADTAVYYCARAGSGGYEDWFDPWGQGTLVTVSS VL: QSVLTQPPSVSGAPGQRVTISCTGSSSNIGAGYNVHWYQQFPRTDPKLLIYVYNIRPSGVPDRFSGSRSGTSASLAITGLQTEDEADYYCQSYDSSLSGVVFGGGTKLTVLG	1.18	1.1	0.49	0.21	40 to 100	40 to 100	40 to 100	40 to 100	5 to 40	40 to 100	40 to 100	40 to 100	1.98	2.06	1.31	1.16	0.099	40 to 100	40 to 100	40 to 100	percent of control (POC) of FACS Geo Mean [10]: 40 to 100%
mAb 2B7.1 (antibody, human IgG2, V domains shown, fully human, Campaign 1) VH: QVQLQQWGAGLLKPSETLSLTCAVYGGSFSGYYWSWIRQPPGKGLEWIGEIDHSGSTNYNPALKSRLTISVDTSKNQFSLKLSSVTAADTAVYYCARAGSGGYEDWFDPWGQGTLVTVSS VL: QSVLTQPPSVSGAPGQRVTISCTGSSSNIGTGYNVHWYQQFPRTDPKLLIYVYNIRPSGVPDRFSGSRSGTSASLAITGLQTEDEADYYCQSYDSSLSGVVFGGGTKLTVLG	5.27	3.93	2.06	0.9									4.6	14	3.5	4.67	0.1	40 to 100	40 to 100	40 to 100	

These reach a lower Kd [12]. Values come first.

IC50 IFN-g, whole blood Donor A, recombinant mAb [1] [nM]	IC50 IFN-g, whole blood Donor B, recombinant mAb [1] [nM]	IC50 IL-2, whole blood Donor A, recombinant mAb [1] [nM]	IC50 IL-2, whole blood Donor B, recombinant mAb [1] [nM]	POC (percent of control, FACS Geo Mean relative to binding to Ch. 1) [2] [%]	POC (percent of control, FACS Geo Mean relative to binding to Ch. 1) [3] [%]	POC (percent of control, FACS Geo Mean relative to binding to Ch. 1) [4] [%]	percent of control (POC) of FACS Geo Mean [5] [%]	percent of control (POC) of FACS Geo Mean [6] [%]	percent of control (POC) of FACS Geo Mean [7] [%]	percent of control (POC) of FACS Geo Mean [8] [%]	percent of control (POC) of FACS Geo Mean [9] [%]	IC50 IFN-γ, whole blood Donor A [11] [nM]	IC50 IFN-γ, whole blood Donor B [11] [nM]	IC50 IL-2, whole blood Donor A [11] [nM]	IC50 IL-2, whole blood Donor B [11] [nM]	Kd [12] [nM]	POC (percent of control, FACS Geo Mean relative to Ch. 1) [13] [%]	POC (percent of control, FACS Geo Mean relative to Ch. 1) [14] [%]	POC (percent of control, FACS Geo Mean relative to Ch. 1) [15] [%]	Binder	other results
1.62	1.61	0.57	0.34									17.1	2.67	5.23	1.44	0.04	40 to 100	40 to 100	40 to 100	mAb 2C1.1 (antibody, human IgG2, lambda, V domains shown, fully human IgG2 lambda, Campaign 1; tested hybridoma-purified and recombinant; also called anti-hOrai1 mAb 2C1.1) VH: QVQLQQWGAGLLKPSETLSLTCAVYGGSFSGYYWSWIRQPPGKGLEWIGEIDHSGSTNYNPALKSRLTISVDTSKNQFSLKLSSVTAADTAVYYCARAGSGGYEDWFDPWGQGTLVTVSS VL: QSVLTQPPSVSGAPGQRVTISCTGSSSNIGAGYNVHWYQQFPRTDPKLLIYVYNIRPSGVPDRFSGSRSGTSASLAITGLQTEDEADYYCQSYDSSLSGVVFGGGTKLTVLG	
				40 to 100	40 to 100	40 to 100	40 to 100	40 to 100	40 to 100	40 to 100	40 to 100					0.019				mAb 5F7.1 (antibody, human IgG2, lambda, fully human IgG2 lambda, Campaign 2) heavy: QVQLVQSGAEVKKPGASVKVPCKASGYTFTDYYINWVRQAPGQGLEWMGWINPNNGGTNYAQKFQGRVTMTRDTSISTAYMELRRLRSDDTAVYYCARERGGYEDWFDPWGQGTLVTVSSASTKGPSVFPLAPCSRSTSESTAALGCLVKDYFPEPVTVSWNSGALTSGVHTFPAVLQSSGLYSLSSVVTVPSSNFGTQTYTCNVDHKPSNTKVDKTVERKCCVECPPCPAPPVAGPSVFLFPPKPKDTLMISRTPEVTCVVVDVSHEDPEVQFNWYVDGVEVHNAKTKPREEQFNSTFRVVSVLTVVHQDWLNGKEYKCKVSNKGLPAPIEKTISKTKGQPREPQVYTLPPSREEMTKNQVSLTCLVKGFYPSDIAVEWESNGQPENNYKTTPPMLDSDGSFFLYSKLTVDKSRWQQGNVFSCSVMHEALHNHYTQKSLSLSPGK light: QSVLTQPPSVSGAPGQRVTISCTGSSSNIGAGFDVHWYQQLPVTAPKLLIYGNRNRPSGVPARFSGSKSGTSASLAITGLQAEDEAVYYCQSYDSSLTVFGGGTKLTVLGQPKANPTVTLFPPSSEELQANKATLVCLISDFYPGAVTVAWKADGSPVKAGVETTKPSKQSNNKYAASSYLSLTPEQWKSHRSYSCQVTHEGSTVEKTVAPTECS	percent of control (POC) of FACS Geo Mean [10]: 40 to 100%; IC50 IFN-γ, whole blood Donor B [16]: 11.8 nM; IC50 IL-2, whole blood Donor A [16]: 4.05 nM; IC50 IL-2, whole blood Donor B [16]: 3.49 nM
